Assay results reported in a protein production outcome set (Wang et al. 2014).

Test: label from the status in PepcDB records

| Sequence | protein production |
| --- | --- |
| MKFKNILFDFDDTLVDFYDAEKKAFYNLAQKYNHQPTQQDFEHFKKVNQAHWEAFQQNKLTKDEVLSQRFINYFNDYQIHVNGKEADKCFRAELAMAPVKLFDHTLEVIQQLKLNHSLYIVTNGVTETQLRRIAQTQFNEIFQDVFISEKAGFQKPMTEFFDFVFEHIGENNRNQTLIVGDSLTSDILGGKNANISTCWFNIRQKENHTSIQPDYIINDLSEMIRIVE | failed |
| MRIGQYQLRNRLIAAPMAGITDRPFRTLCYEMGAGLTVSEMMSSNPQVWESDKSRLRMVHIDEPGIRTVQIAGSDPKEMADAARINVESGAQIIDINMGCPAKKVNRKLAGSALLQYPDVVKSILTEVVNAVDVPVTLKIRTGWAPEHRNCEEIAQLAEDCGIQALTIHGRTRACLFNGEAEYDSIRAVKQKVSIPVIANGDITDPLKARAVLDYTGADALMIGRAAQGRPWIFREIQHYLDTGELLPPLPLAEVKRLLCAHVRELHDFYGPAKGYRIARKHVSWYLQEHAPNDQFRRTFNAIEDASEQLEALEAYFENFA | failed |
| MAPLGGAPRLVLLFSGKRKSGKDFVTEALQSRLGADVCAVLRLSGPLKEQYAQEHGLNFQRLLDTSTYKEAFRKDMIRWGEEKRQADPGFFCRKIVEGISQPIWLVSDTRRVSDIQWFREAYGAVTQTVRVVALEQSRQQRGWVFTPGVDDAESECGLDNFGDFDWVIENHGVEQRLEEQLENLIEFIRSRL | failed |
| MSSKGEGSSSTAEREVKKQVASVIPVTRKLVKTMAAKAIISALTPSGCGRHSDSTGDGKELKPFKKKEGSVIPKERELVKTKAAKAIFSLFRPSCDGKQSSQPSRDGDGDHDGKRVYPTRY | failed |
| MPARPGAARERIRSTAAPAVGEKVLNALRDLPAGMIYTLGAKPTVLRGLALAIEKRVKGIDWSPDGATLFAEVMDGSRHHEVRLEANGGFLTPSCDCPLWRPTGHCPHVIAALAVLKKGLVHQAITSLRLDSDYLAEVSGWLSGVEAAQPTAPAVPRLVVERGADGIQARIWLGEHPVSIHDQALPRTVRDFLWTLLNPRESGFIIERYLEAFGDDAPMALRQDDNEIPLRFDRGRVHGTLTLLEQVRGMVIARKGLEDGHPIPDTCFAAYRYYFDIPAGAVRVIDSFEGWDLWNTINYEAAEWSLDTGVSVERNSRTISLPADAFNAIGLTVTEKGLPTILERIRFYGAGGPGEPARITHNYRLRVADMNDTTALLLAEGVYGDAAIPLSAGAFSFFTSRGRSTASVPLRTKKRSSAVIAGCFAALDCVTRAELERTIRHALAGDDFLKRTVKSEAKRIITAFAAACETRETTLLAADGAWLISVAEPKVEAQLLEIPYRLFGAEIFGSSDLAGAMTVNRDALFRQFPALHNRLAEAGFDLVLQDRPVEAVTLDVTLDATRSTLDWFELRPEIRCGTGELTEQEIAEAMASGGVFRRGDSFLLINEESSRILAMLYPEAGVKKRRKAEVVRIPRLQILDWLVLRHHGVSVRLSPEDERIFASLATFEEIPSSPLPERLQATLRHYQVDAFHWLAFLYTHRFGACLADDMGLGKTIQAISLLAALHEGTLPSRVPEPRPHLIVVPPSLLFNWENELARFYPAFTVLTYRGTGRSADFTGVDIVLTSYGIIPRDIGILAEIPFHCIVFDEAQAVKNIQADTTGACRRLRGAFTLCLTGTPVENHLGEYFSVMDLAVPGLLGSYEEFRRQAGNAAAPFLETLVRRTRPFVLRRSKQMIAAELPPKIETDIYLELTPRQKALYTRTVEEVRETVLEAWRGKSPGQARIIALTAILRLRQLCLSPRLLIADSREPSPKVEFLVEQLEELFTEGHSVLVFSQFTSFLDIVEGELSRRGVHYYRLDGSTPVPERKRLVTAFQKGDEPSVFLLSLKAGGKGLNLTRATYVFHLDPWWNPAVENQASDRAHRIGQTRQVTITRLVMRHTIEEKMMELKKRKLKLYHALLEENSAGDGGGISREDFEFLLG | failed |
| MNIEQMLAILDPDVVQRLKIAVEIGKWPNGVALTAEQRQICMQAVMIWEHKHLPEEERTGYIDRGTKEEGEECDSHEPEIKPIRFI | failed |
| MNTFAIPAPLIDAWRTTLETLRNLTGLGFGLLTRENGGELEIMVTAGELPSPFAEGYCLKGGPEGPLCAVVHTLARSLLIPDTTADARWASNPAVKAGVRAYFGLPLRLPTGALFGTLCLGSMSPVTGHDAVLKPLHCFATLVEQHIALLSTNALLRSQLDALPGASFASDPHGQMLFASNRCGSLLDLHPADIPGSDVDTVFNRIAALCESPEECHAILRRSFTLGGPSNGKLAFDDGRTIRWQARRLREDAGSVLGCTWFLEDATAELQARAGLTRSEALFRGLFNNAAVGIVLLDRQGFVVRSNVACARMLGTSPEQMHGLSFRAVLPPEDADQHLEEMQSLAEGETDELHGCWEMLHRNGSRLRVDLHGARLPGSGEEVVMLVGVDVTEQWRTERALAESERRYRALFDNAQAGIFRTSLADGTFLEANLRMAQMFGYDDVATFMAEYRAAENYVDPADRALMLDRLRTSGSFATMETHMRRRDGTTTWFLYSGTLDGDTIIGVANEISEMRATQEALRRSEERYRALFDNAADGLLLYEADGTLIDVNETIARRLGESREAIVGRNVASIVEPEVLERVRPRLAEILETGHASFESVHRTAMGPVNVEVHARRIEFEGRFVVLSSARDITERKNLEAALLREATTDPLTGGRNRRQFFVDANREFARALRHDSGLAVLMLDIDHFKNVNDLYGHQAGDEVLRAFAACCVEALRAYDVFGRLGGEEFAALLPAASPEEAMETAERLRKRVERRSVVYEGTALQCTVSVGVTSLAAADLGFDDMLRRADRALYAAKDHGRNRSEMAPMPMVPAEIPPPRKPFRE | failed |
| MRLFFSLLILLSFFARATEPVQVFTDDLGRKVTVPAHPKRIVSLHDLDITIPLIELGVPPVASHGRTRPDGSHFIRSGALLTGVDFDNSSIAFIGTADIDIEAIVAAKPDLIITEPTRNTPIERLEKIAPTVSIDHLKGGAPEIYRKLAELTGTQSQLAILERRYQAQINALKATLDSQKITVSVIQANQGKINVMHSYHSLGRVLRDAGFRFPPLIESIPEGGRMDVSAERLPELDADFVFATWRGDTGGKPQDELAAMEKVMPGWCQFLTACRSGRYVLISREEAISNSFASLGLMAAQIQSQIAGRPLPEAK | not failed |
| MKIGVLGLQGAVREHVRAIEACGAEAVIVKKSEQLEGLDGLVLPGGESTTMRRLIDRYGLMEPLKQFAAAGKPMFGTCAGLILLAKRIVGYDEPHLGLMDITVERNSFGRQRESFEAELSIKGVGDGFVGVFIRAPHIVEAGDGVDVLATYNDRIVAARQGQFLGCSFHPELTDDHRLMQYFLNMVKEAKMASSLK | not failed |
| MNSSIVNAGIDPQVRESLKSFVGEAIDYANTSGKDAAIAKFNDQNGTFVRGNLYVYAFDYNGTTLALPYQPQLIGTDLSGLQDPYGVNYTKLEHHHHHH | not failed |
| MDIKVSGRKTTVTDALRAHVDEKIGEALKVFDIEPMTVDVVLRYEKNPSNPNPAIVEVTARARGSVIRVAEHGADMYAAIDLSADKVTRQLRKFKTKVVDNRQGGASAADVAPVERVEDLADLLLPEEDDDLLVREKVIDVTPMTEEQALVQTDLLGHDFYVFENATTGLINVVYHRKNGGYGIIKPRIETLDE | failed |
